Assay results taken from patent US20110223216A1, “Nanoparticles and Porous Particles and Methods of Making the Same” (WAYNE STATE UNIVERSITY, priority 2008, published 2011).

Assay: Sedimentation rate / physical stability of micronized drug dispersions in HFA227 with or without chitosan-PLA nanoparticles
Experimental: Sedimentation rate of micronized insulin in HFA 227 were conducted to test the physical stability of dispersions.

[1] = pure (bare) drug particles in HFA227

## insulin
[1]
  creaming of dispersion: creaming out in seconds
  redispersibility: not being redispersible
Pure (bare) drug particles, 2 mg/ml in HFA227, 298K, saturation pressure
  physical stability of dispersion: poor stability
Upon addition of chitosan-PLA nanoparticles (1 or 2 mg/ml), HFA227
  physical stability of dispersion: improved
With chitosan-PLA nanoparticles, HFA227, after storage
  redispersibility: can be redispersed simply by hand-shaking even after several days of storage
